The Kd is the equilibrium constant for the complex coming apart. As a reminder, the koff is the first-order rate constant of dissociation. Read a high koff as a short-lived complex.

Results on two molecules are retold here after publication PMC9135708 (2022).

Holding throughout (experiment): BLI
A general note: In BLI a coated tip is dipped into the sample, and binding shifts an interference pattern.

Assay [1] has as its target AKBR-1.
Assay [2] has as its target AKBR-5.
Assay [3] concerns the target TY01.
Assay [4] deals with TY07.
Assay [5] has as its target TY19.

B1: Plasmodium falciparum TRAP ectodomain (PfTRAP) (domain or fragment)
chain: RDVQNNIVDEIKYSEEVCNDQVDLYLLMDCSGSIRRHNWVNHAVPLAMKLIQQLNLNDNAIHLYVNVFSNNAKEIIRLHSDASKNKEKALIIIRSLLSTNLPYGRTNLTDALLQVRKHLNDRINRENANQLVVILTDGIPDSIQDSLKESRKLSDRGVKIAVFGIGQGINVAFNRFLVGCHPSDGKCNLYADSAWENVKNVIGPFMKAVCVEVEKTASCGVWDEWSPCSVTCGKGTRSRKREILHEGCTSEIQEQCEEERCPPKWEPLDVPDEPEDDQPRPRGDNSSVQKPEENIIDNNPQEPSPNPEEGKDENPNGFDLDENPENPPNPDIPEQKPNIPEDSEKEVPSDVPKNPEDDREENFDIPKKPENKHDNQNNLPNDKSDRNIPYSPLPPKVLDNERKQSDPQSQDNNGNRHVPNSEDRETRPHGRNNENRSYNRKYNDTPKHPEREEHEKPDNNKKKGESDNKYK
modifications: site-specific biotinylation using BirA ligase, when required
In assay [1], B1 returned a dissociation constant Kd of 194 nM and a dissociation rate constant (koff) of 0.00368 s⁻¹. In assay [2], this molecule showed a Kd of 52.9 nM and a koff of 0.00611 s⁻¹.

B2: Plasmodium yoelii TRAP ectodomain (PyTRAP) (domain or fragment)
chain: NGQETLDEIKYSEEVCTEQIDIHILLDGSGSIGYSNWKAHVIPMLNTLVDNLNISNDEINVSLTLFSTNSRELIKLKGYGSTSKDSLRFILAHLQNNYSPNGNTNLTSALLVVDTLINERMYRPDAIQLAIILTDGIPNDLPRSTAVVHQLKRKHVNVAIIGVGAGVNNEYNRILVGCDRYAPCPYYSSGSWNEAQNMIKPFLTKVCQEVERIAHCGKWEEWSECSTTCDEGRKIRRRQILHPGCVSEMTTPCKVRDCPQIPIPPVIPNKIPEKPSNPEEPVNPNDPNDPNNPNNPNNPNNPNNPNNPNNPNNPNNPNNPNNPNNPNNPNNPNNPNNPNNPNNPNNPNNPNNPNNPNNPNDPSNPNNPNPKKRNPKRRNPNKPKPNKPNPNKPNPNEPSNPNKPNPNEPSNPNKPNPNEPSNPNKPNPNEPSNPNKPNPNEPLNPNEPSNPNEPSNPNAPSNPNEPSNPNEPSNPNEPSNPNEPSNPNEPSNPKKPSNPNEPSNPNEPLNPNEPSNPNEPSNPNEPSNPEEPSNPKEPSNPNEPSNPEEPNPEEPSNPKEPSNPEEPINPEELNPKEPSNPEESNPKEPINPEESNPKEPINPEDNENPLIIQDEPIEPRNDSNVIPILPIIPQKGNNIPSNLPENPSDSEVEYPRPNDNGENSNNTMKSKKNIPNEPIPSPGDNPYKGHEERIPKPHRSNDDYVYDNNVNKNNKDEPEIPNNEYEEDKNKNQSKSNNGYK
modifications: site-specific biotinylation using BirA ligase, when required
Regarding B2, the Kd in assay [3] was 1.65 nM; in assay [4], 26.5 nM; in assay [5], 307 nM. Further, the off-rate (koff) in assay [3] is 0.000498 s⁻¹; in assay [4], 0.00397 s⁻¹; in assay [5], 0.0495 s⁻¹.
